Reference: US20210395357A1 (IPHASE PHARMA SERVICE, published 2021)

Experiments:
[1] = biological target: T1, rhIL-6-His (recombinant human IL-6, Val30 to Met212, C-terminal 6 His) (human, UniProt P05231 30-212); assay: cell-based or functional assay
[2] = biological target: T1, rhIL-6-His (recombinant human IL-6, …); assay: BLI, ForteBio Blitz
[3] = biological target: T1, rhIL-6-His (recombinant human IL-6, …); assay: ELISA, rhIL-6-His coated at 1 µg/ml, anti-human IgG-HRP
Experimental: The rhIL-6-His antigen was diluted with PBS (pH=8.6) to 1 μg/ml, added to a microtiter plate at 100 μl/well, coated overnight at 4° C., and blocked at 37° C. for 2 hour by adding 300 μl/well of 3% BSA after washing the plate 4 times with PBST. […] The plate was washed for 4 times with PBST, added with HRP (horseradish peroxidase) labeled goat anti-human IgG antibody (ProteinTech, SA00001-1), and incubated at 37° C. for 1 hour. The plate was washed for 4 times with PBST, added with 100 μl/well of TMB color-developing solution (Zuman Bio, ZD311), and incubated at 37° C. for 15 minutes; after color development, 50 μl/well of stop solution (1M sulfuric acid) was added, and the absorbance value at 450 nm wavelength was measured on the microplate reader (BioTek, ELx808).

[4] = biological target: T1, rhIL-6-His (recombinant human IL-6, …); assay: competition ELISA: antibody pre-incubated with rhIL-6-His, binding to coated rhIL-6R detected with anti-His-HRP
Experimental: The rhIL-6R (Sino Biological, 10398-H02H) antigen was diluted with PBS (pH=8.6) to 1.5 μg/ml, added to a microtiter plate A at 100 μl/well, coated overnight at 4° C., and blocked at 37° C. for 2 hour by adding 300 μl/well of 3% BSA after washing the plate for 4 times with PBST. […] The plate A was washed once with PBST, added with the mixture in plate B, and incubated at 37° C. for 1 hour. The plate A was washed for 4 times with PBST, added with 100 μl/well of HRP (horseradish peroxidase) labeled anti-His antibody (ProteinTech, HRP-66005), and incubated at 37° C. for 1 hour. The plate was washed for 4 times with PBST, added with 100 μl/well of TMB color-developing solution (Zuman Bio, ZD311), and incubated at 37° C. for 15 minutes for color development; 50 μl/well of stop solution (1M sulfuric acid) was added, and the absorbance value at 450 nm wavelength was measured on the microplate reader (BioTek, ELx808).

T1 sequence (P05231 other isoform, or with tags, fused parts or gaps limits assumed): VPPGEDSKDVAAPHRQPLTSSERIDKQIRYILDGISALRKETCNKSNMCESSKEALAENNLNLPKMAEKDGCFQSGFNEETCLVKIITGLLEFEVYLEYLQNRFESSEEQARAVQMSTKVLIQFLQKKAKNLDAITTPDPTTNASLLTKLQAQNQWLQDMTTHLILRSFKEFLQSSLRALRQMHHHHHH

| concentration of SAA in supernatant of rhIL-6 stimulated HepG2 cells at 100 µg/mL antibody [1] [ng/mL] | concentration that inhibits IL-6-stimulated phosphorylation of p-Stat3 (Tyr705) in DLD-1 cells, Western blot [1] [µg/mL] | kon [2] [M⁻¹ s⁻¹] | EC50 [3] [µg/mL] | IC50 [4] [µg/mL] | Binder |
| --- | --- | --- | --- | --- | --- |
| 85 | 32 | 93200 | 0.39 | 3.04 | HZ-0408d (antibody, human IgG1, kappa, V domains shown, Humanized from murine 140-4; IgG1 type antibody from 293F cells; also called L3/H3) VH: QVTLKESGPVLVKPTETLTLTCTVSGFSLSTSGMGVGWIRQPPGKALEWLAHIWWDDDKRYNSALKSRLTISKDTSKSQVVLTMTNMDPVDTATYYCARIGGLYVDYLMDYWGQGTLVTVSS VL: DIQMTQSPSSLSASVGDRVTITCRASQSISDYLHWYQQKPGKAPKLLIYYASQSISGVPSRFSGSGSGTDFTLTISSLQPEDFATYYCQNGHSFPWTFGQGTKVEIKR |
| 12.5 | 8 | 74300 | 0.18 | 1.29 | HZ-0408c (antibody, human IgG1, kappa, V domains shown, Humanized from murine 140-4; IgG1 type antibody from 293F cells; also called L2/H3) VH: QVTLKESGPVLVKPTETLTLTCTVSGFSLSTSGMGVGWIRQPPGKALEWLAHIWWDDDKRYNSALKSRLTISKDTSKSQVVLTMTNMDPVDTATYYCARIGGLYVDYLMDYWGQGTLVTVSS VL: EIVLTQSPATLSLSPGERATLSCRASQSISDYLHWYQQKPGQAPRLLIYYASQSISGIPARFSGSGSGTDFTLTISSLEPEDFAVYYCQNGHSFPWTFGQGTKVEIKR |
| 30.5 | 2 | 128000 | 0.16 | 0.72 | HZ-0408a (antibody, human IgG1, kappa, V domains shown, Humanized from murine 140-4; expressed in 293F cells and captured on Protein A as an IgG1 type antibody; also called L1/H2) VH: QVTLKESGPALVKPTQTLTLTCTFSGFSLSTSGMGVGWIRQPPGKALEWLAHIWWDDDKRYNSALKSRLTISKDTSKNQVVLTMTNMDPVDTATYYCARIGGLYVDYLMDYWGQGTLVTVSS VL: EIVLTQSPDFQSVTPKEKVTITCRASQSISDYLHWYQQKPDQSPKLLIKYASQSISGVPSRFSGSGSGTDFTLTINSLEAEDAATYYCQNGHSFPWTFGQGTKVEIKR |
| -2.5 | 2 | 233000 | 0.09 | 0.53 | HZ-0408b (antibody, human IgG1, kappa, V domains shown, Humanized from murine 140-4; IgG1 type antibody from 293F cells; also called L1/H3) VH: QVTLKESGPVLVKPTETLTLTCTVSGFSLSTSGMGVGWIRQPPGKALEWLAHIWWDDDKRYNSALKSRLTISKDTSKSQVVLTMTNMDPVDTATYYCARIGGLYVDYLMDYWGQGTLVTVSS VL: EIVLTQSPDFQSVTPKEKVTITCRASQSISDYLHWYQQKPDQSPKLLIKYASQSISGVPSRFSGSGSGTDFTLTINSLEAEDAATYYCQNGHSFPWTFGQGTKVEIKR |
| 148 | 64 | 28900 | 67.3 | 12.5 | Siltuximab (antibody, V domains shown) VH: EVQLVESGGKLLKPGGSLKLSCAASGFTFSSFAMSWFRQSPEKRLEWVAEISSGGSYTYYPDTVTGRFTISRDNAKNTLYLEMSSLRSEDTAMYYCARGLWGYYALDYWGQGTSVTVSS VL: QIVLIQSPAIMSASPGEKVTMTCSASSSVSYMYWYQQKPGSSPRLLIYDTSNLASGVPVRFSGSGSGTSYSLTISRMEAEDAATYYCQQWSGYPYTFGGGTKLEIK |
